Here are results for 4 molecules from patent US20150315296A1 (Hoffmann-La Roche, published 2015).

Positions count from the first letter of the chain named.

For experiment [1], the target named is T1, human VEGFA-121-His (human, UniProt P15692-9 27-147).
T1 construct: also called VEFGA-121-His; not shown: His tag
T1 sequence (looked up): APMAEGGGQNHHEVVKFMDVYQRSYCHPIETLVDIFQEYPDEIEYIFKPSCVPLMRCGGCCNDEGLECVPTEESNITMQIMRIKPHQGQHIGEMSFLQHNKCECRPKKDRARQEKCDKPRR
Kind of experiment: SPR (Biacore T200), VEGFA-121-His amine-coupled on C1 chip, antibody in solution, 25 C, 1:1 Langmuir. As to the method: (§1) Binding of indicated antibodies to human VEGFA-121 was investigated by surface plasmon resonance using a BIACORE® T200 instrument (GE Healthcare). Aim for 50 RU of VEFGA-121-His were coupled on a Series S C1 chip (GE Healthcare BR-1005-35) at pH 5.0 by using an amine coupling kit supplied by the GE Healthcare. HBS-N(10 mM HEPES, 150 mM NaCl pH 7.4, GE Healthcare) was used as running buffer during the immobilization procedure. For the following kinetic characterization, sample and running buffer was PBS-T (10 mM phosphate buffered saline including 0.05% Tween20) at pH 7.4. The flow cell was set to 25° C.—and the sample block set to 12° C.—and primed with running buffer twice prior to kinetic characterization.
The association was measured by injection the indicated antibody in various concentrations in solution for 180 sec at a flow of 30 μl/min starting with 100 nM in 1:3 serial dilutions. The dissociation phase was monitored for up to 300 sec and triggered by switching from the sample solution to running buffer. The surface was regenerated by 30 sec washing with a 0.85% H₃PO₄ (phosphoric acid) solution at a flow rate of 30 μl/min Bulk refractive index differences were corrected by subtracting the response obtained from a anti His antibody surface. Blank injections are also subtracted (=double referencing). For calculation of KD and other kinetic parameters the Langmuir 1:1 model was used.
A general note: In SPR one partner is held on a chip, and binding of the other changes the refractive index at the surface.

Experiment [2] deals with T2, human Ang-2-RBD-Fc (human, UniProt O15123 275-496, limits assumed).
T2 construct: domain: RBD; not shown: Fc part
T2 sequence (looked up): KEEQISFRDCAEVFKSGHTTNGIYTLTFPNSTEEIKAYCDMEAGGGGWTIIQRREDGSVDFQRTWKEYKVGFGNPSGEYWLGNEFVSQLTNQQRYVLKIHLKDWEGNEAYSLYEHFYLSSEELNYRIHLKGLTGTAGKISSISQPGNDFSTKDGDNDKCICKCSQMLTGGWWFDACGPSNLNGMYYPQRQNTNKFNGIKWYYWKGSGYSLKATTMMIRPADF
Kind of experiment: SPR (Biacore T200), antibody captured by anti-human F(ab')2, Ang2-RBD-Fc in solution, 25 C, apparent KD, 1:1 Langmuir. As to the method: as §1, with “Ang-2-RBD-Fc” for “VEGFA-121”, “Around 8000 (RU)” for “Aim for 50 RU”, “goat anti human F(ab′)₂ (10 μg/ml anti human F(ab)′₂; Order Code: 28958325; GE Healthcare Bio-Sciences AB, Sweden)” for “VEFGA-121-His”, “CM5” for “C1”, “BR-1005-30)” for “BR-1005-35)”
The bispecific antibody was captured by injecting a 5 nM solution for 25 sec at a flow of 5 μl/min. The association was measured by injection of human Ang2-RBD-Fc in various concentrations in solution for 120 sec at a flow of 30 μl/min starting with 100 nM in 1:3 serial dilutions. The dissociation phase was monitored for up to 180 sec and triggered by switching from the sample solution to running buffer. The surface was regenerated by 60 sec washing with a Glycine pH 2.1 solution at a flow rate of 30 μl/min Bulk refractive index differences were corrected by subtracting the response obtained from a goat anti human F(ab′)₂ surface. Blank injections are also subtracted (=double referencing). For calculation of apparent KD and other kinetic parameters the Langmuir 1:1 model was used.

B1: xFab-Fab<ANG2-VEGF>-uncharged (Ang2VEGF-0452) (bispecific antibody)
light 1: QPGLTQPPSVSVAPGQTARITCGGNNIGSKSVHWYQQKPGQAPVLVVYDDSDRPSGIPERFSGSNSGNTATLTISRVEAGDEADYYCQVWDSSSDHYVFGTGTKVTVLRTVAAPSVFIFPPSDEQLKSGTASVVCLLNNFYPREAKVQWKVDNALQSGNSQESVTEQDSKDSTYSLSSTLTLSKADYEKHKVYACEVTHQGLSSPVTKSFNRGEC
heavy: not shown
light 2: EVQLVESGGGLVQPGGSLRLSCAASGYTFTNYGMNWVRQAPGKGLEWVGWINTYTGEPTYAADFKRRFTFSLDTSKSTAYLQMNSLRAEDTAVYYCAKYPHYYGSSHWYFDVWGQGTLVTVSSASVAAPSVFIFPPSDEQLKSGTASVVCLLNNFYPREAKVQWKVDNALQSGNSQESVTEQDSKDSTYSLSSTLTLSKADYEKHKVYACEVTHQGLSSPVTKSFNRGEC
notes: Bivalent, Fc-free CrossFab(VH-VL)-Fab format
For the molecule B1, the Kd is 0.35 nM in experiment [1] and 3 nM in experiment [2].

B2: xFab2-Fab<ANG2-VEGF>-uncharged (Ang2VEGF-0453) (bispecific antibody)
light 1: B1 light 1
heavy: not shown
light 2: B1 light 2
notes: Trivalent, Fc-free (CrossFab VH-VL)2-Fab format
Turning to B2, the figures for the Kd in experiment [1] and in experiment [2] were 0.22 nM and 5 nM, respectively.

B3: xFab2-Fab<ANG2-VEGF>-charged (Ang2VEGF-0448) (bispecific antibody)
light 1: B1 light 1 with E124K, Q125R
heavy: not shown
light 2: B1 light 2
notes: as for B2
On to B3, for which the figures for the Kd in experiment [1] and in experiment [2] were 0.18 nM and 4 nM, respectively.

B4: xFab-Fab<ANG2-VEGF>-charged (Ang2VEGF-0447) (bispecific antibody)
light 1: B1 light 1 with E124K, Q125R
heavy: not shown
light 2: B1 light 2
notes: as for B1
For the molecule B4, the Kd in experiment [1] worked out at 0.36 nM; in experiment [2] it was 3 nM.
